Source: IntAct's records for PubMed 14596906

B1: Formin-binding protein 1 (Homo sapiens), Q96RU3 (parent)
chain: MSWGTELWDQFDNLEKHTQWGIDILEKYIKFVKERTEIELSYAKQLRNLSKKYQPKKNSKEEEEYKYTSCKAFISNLNEMNDYAGQHEVISENMASQIIVDLARYVQELKQERKSNFHDGRKAQQHIETCWKQLESSKRRFERDCKEADRAQQYFEKMDADINVTKADVEKARQQAQIRHQMAEDSKADYSSILQKFNHEQHEYYHTHIPNIFQKIQEMEERRIVRMGESMKTYAEVDRQVIPIIGKCLDGIVKAAESIDQKNDSQLVIEAYKSGFEPPGDIEFEDYTQPMKRTVSDNSLSNSRGEGKPDLKFGGKSKGKLWPFIKKNKLMSLLTSPHQPPPPPPASASPSAVPNGPQSPKQQKEPLSHRFNEFMTSKPKIHCFRSLKRGLSLKLGATPEDFSNLPPEQRRKKLQQKVDELNKEIQKEMDQRDAITKMKDVYLKNPQMGDPASLDHKLAEVSQNIEKLRVETQKFEAWLAEVEGRLPARSEQARRQSGLYDSQNPPTVNNCAQDRESPDGSYTEEQSQESEMKVLATDFDDEFDDEEPLPAIGTCKALYTFEGQNEGTISVVEGETLYVIEEDKGDGWTRIRRNEDEEGYVPTSYVEVCLDKNAKDS

Variants of: B1
Details: with tnks1_human TNKS

effect of a mutation on the interaction	Variant
decreasing interaction	R515A
disrupting interaction	R515A;D519A
